One data set addresses T1, LGP-Dox.
T1 chain: LGP

For data set [1], the target named is T2, N-succinyl-beta-alanyl-L-leucyl-L-alanyl-L-leucyl-doxorubicin.
T2 chain: ALAL

Another data set addresses T3, NH2-Gly-Pro-Doxorubicin.
T3 chain: GP

A further data set concerns the target T4, PhAc-ALGP-doxorubicin.
T4 chain: ALGP

The next data set deals with T5, PhAc-AIGP-doxorubicin.
T5 chain: AIGP

Another data set concerns the target T6, PhAc-ALAF-doxorubicin.
T6 chain: ALAF

The target of the next data set is T7, PhAc-ALAL-doxorubicin.
T7 chain: ALAL

For the next data set, the target named is T8, PhAc-ALPF-doxorubicin.
T8 chain: ALPF

Another data set deals with T9, PhAc-DLGP-doxorubicin.
T9 chain: DLGP

The target in another data set is T10, PhAc-GPGP-doxorubicin.
T10 chain: GPGP

The next data set addresses T11, PhAc-KLGP-doxorubicin.
T11 chain: KLGP

Another data set concerns the target T12, PhAc-TSGP-doxorubicin.
T12 chain: TSGP

In data set [2] the target is T13, Succinyl-βALPF-doxorubicin.
T13 chain: ALPF

B1: CD26 (protein)
chain: SRKTYTLTDYLKNTYRLKLYSLRWISDHEYLYKQENNILVFNAEYGNSSVFLENSTFDEFGHSINDYSISPDGQFILLEYNYVKQWRHSYTASYDIYDLNKRQLITEERIPNNTQWVTWSPVGHKLAYVWNNDIYVKIEPNLPSYRITWTGKEDIIYNGITDWVYEEEVFSAYSALWWSPNGTFLAYAQFNDTEVPLIEYSFYSDESLQYPKTVRVPYPKAGAVNPTVKFFVVNTDSLSSVTNATSIQITAPASMLIGDHYLCDVTWATQERISLQWLRRIQNYSVMDICDYDESSGRWNCLVARQHIEMSTTGWVGRFRPSEPHFTLDGNSFYKIISNEEGYRHICYFQIDKKDCTFITKGTWEVIGIEALTSDYLYYISNEYKGMPGGRNLYKIQLSDYTKVTCLSCELNPERCQYYSVSFSKEAKYYQLRCSGPGLPLYTLHSSVNDKGLRVLEDNSALDKMLQNVQMPSKKLDFIILNETKFWYQMILPPHFDKSKKYPLLLDVYAGPCSQKADTVFRLNWATYLASTENIIVASFDGRGSGYQGDKIMHAINRRLGTFEVEDQIEAARQFSKMGFVDNKRIAIWGWSYGGYVTSMVLGSGSGVFKCGIAVAPVSRWEYYDSVYTERYMGLPTPEDNLDHYRNSTVMSRAENFKQVEYLLIHGTADDNVHFQQSAQISKALVDVGVDFQAMWYTDEDHGIASSTAHQHIYTHMSHFIKQCFSLP
On to B1, for which the “hydrolysis by purified CD26” value with LGP-Dox was “Neither CD26 nor FAP hydrolized either PhAc-ALGP-Dox, Suc-βALAL-Dox or LGP-Dox”; in data set [1] it was “Neither CD26 nor FAP hydrolized either PhAc-ALGP-Dox, Suc-βALAL-Dox or LGP-Dox”; with PhAc-ALGP-doxorubicin, “Neither CD26 nor FAP hydrolized either PhAc-ALGP-Dox, Suc-βALAL-Dox or LGP-Dox”. The “conversion to Dox after 3 h incubation at 37° C. with purified CD26” value with NH2-Gly-Pro-Doxorubicin is 97% conversion to Dox after 3 h incubation at 37 °C.

B2: CD10 (recombinant human neprilysin, R&D systems, Ref 1182-ZN) (protein)
chain: DDGICKSSDCIKSAARLIQNMDATTEPCTDFFKYACGGWLKRNVIPETSSRYGNFDILRDELEVVLKDVLQEPKTEDIVAVQKAKALYRSCINESAIDSRGGEPLLKLLPDIYGWPVATENWEQKYGASWTAEKAIAQLNSKYGKKVLINLFVGTDDKNSVNHVIHIDQPRLGLPSRDYYECTGIYKEACTAYVDFMISVARLIRQEERLPIDENQLALEMNKVMELEKEIANATAKPEDRNDPMLLYNKMTLAQIQNNFSLEINGKPFSWLNFTNEIMSTVNISITNEEDVVVYAPEYLTKLKPILTKYSARDLQNLMSWRFIMDLVSSLSRTYKESRNAFRKALYGTTSETATWRRCANYVNGNMENAVGRLYVEAAFAGESKHVVEDLIAQIREVFIQTLDDLTWMDAETKKRAEEKALAIKERIGYPDDIVSNDNKLNNEYLELNYKEDEYFENIIQNLKFSQSKQLKKLREKVDKDEWISGAAVVNAFYSSGRNQIVFPAGILQPPFFSAQQSNSLNYGGIGMVIGHEITHGFDDNGRNFNKDGDLVDWWTQQSASNFKEQSQCMVYQYGNFSWDLAGGQHLNGINTLGENIADNGGLGQAYRAYQNYIKKNGEEKLLPGLDLNHKQLFFLNFAQVWCGTYRPEYAVNSIKTDVHSPGNFRIIGTLQNSAEFSEAFHCRKNSYMNPEKKCRVW
Turning to B2, the “cleavage by purified CD10 10 nM (grade)” value with LGP-Dox is on record as “-”; in data set [1] it was “+”; with PhAc-AIGP-doxorubicin it was “+”; with PhAc-ALAF-doxorubicin it was “+”; in the data set with PhAc-ALGP-doxorubicin, “+”; with PhAc-ALPF-doxorubicin, “-”. For the same protein, the “cleavage by purified CD10 10 nM (grade)” value with PhAc-DLGP-doxorubicin, in the data set with PhAc-GPGP-doxorubicin and with PhAc-TSGP-doxorubicin was “-” each time. Further, the “cleavage by purified CD10 10 nM (grade; * = less than 5% of metabolites detected)” value (with PhAc-ALAL-doxorubicin; with PhAc-KLGP-doxorubicin; in [2]) was “-*” throughout.
